According to patent publication US20240226298A1 (JUNO THERAPEUTICS, published 2024):
Numbering of substitutions follows the chain as printed.

T1: B-lymphocyte antigen CD19 (CD19) (human, UniProt P15391 20-556)
T1 sequence (looked up): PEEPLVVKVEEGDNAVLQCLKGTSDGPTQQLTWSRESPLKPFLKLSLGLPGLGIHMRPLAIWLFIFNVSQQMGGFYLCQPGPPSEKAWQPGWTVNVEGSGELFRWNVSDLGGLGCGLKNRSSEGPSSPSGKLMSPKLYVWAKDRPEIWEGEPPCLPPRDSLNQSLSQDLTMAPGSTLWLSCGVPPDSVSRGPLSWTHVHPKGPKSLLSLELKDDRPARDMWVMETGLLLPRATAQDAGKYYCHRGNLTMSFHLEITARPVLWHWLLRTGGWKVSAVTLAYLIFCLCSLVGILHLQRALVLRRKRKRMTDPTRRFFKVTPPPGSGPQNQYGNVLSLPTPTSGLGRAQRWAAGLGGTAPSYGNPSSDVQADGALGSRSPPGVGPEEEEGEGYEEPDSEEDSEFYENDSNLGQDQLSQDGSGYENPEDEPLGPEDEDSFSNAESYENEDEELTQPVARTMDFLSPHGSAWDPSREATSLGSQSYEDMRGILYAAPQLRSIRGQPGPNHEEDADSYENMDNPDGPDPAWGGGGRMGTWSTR

B1: JH3 CAR/LoD (other)
chain: EIVMTQSPATLSLSPGERATLSCRASQSVSSNYFSWYQQKPGQAPRLLIYGASTRATGIPARFSGSGSGTDFTLTISSLQPEDFAVYYCQQDYDFPFTFGPGTKVDIKRGGGGSGGGGSDIQMTQTTSSLSASLGDRVTISCRASQDISKYLNWYQQKPDGTVKLLIYHTSRLHSGVPSRFSGSGSGTDYSLTISNLEQEDIATYFCQQGNTLPYTFGGGTKLEITGSTSGSGKPGSGEGSTKGEVKLQESGPGLVAPSQSLSVTCTVSGVSLPDYGVSWIRQPPRKGLEWLGVIWGSETTYYNSALKSRLTIIKDNSKSQVFLKMNSLQTDDTAIYYCAKHYYYGGSYAMDYWGQGTSVTVSSGGGGSGGGGSQVQLQESGPGLVKPSETLSLTCTVSGGSISNYYWSWIRQPPGKGLEWIGYIYYSGSTIYNPSLKSRVTISVDTSKNQFSLKLSSVTAADTAVYYCAGDSSGIDYWGQGTLVTVSSESKYGPPCPPCPMFWVLVVVGGVLACYSLLVTVAFIIFWVKRGRKKLLYIFKQPFMRPVQTTQEEDGCSCRFPEEEEGGCELRVKFSRSADAPAYQQGQNQLYNELNLGRREEYDVLDKRRGRDPEMGGKPRRKNPQEGLYNELQKDKMAEAYSEIGMKGERRRGKGHDGLYQGLSTATKDTYDALHMQALPPR
B2: JH2 CAR/LiD/b (other)
chain: DIQMTQTTSSLSASLGDRVTISCRASQDISKYLNWYQQKPDGTVKLLIYHTSRLHSGVPSRFSGSGSGTDYSLTISNLEQEDIATYFCQQGNTLPYTFGGGTKLEITGSTSGSGKPGSGEGSTKGEVKLQESGPGLVAPSQSLSVTCTVSGVSLPDYGVSWIRQPPRKGLEWLGVIWGSETTYYNSALKSRLTIIKDNSKSQVFLKMNSLQTDDTAIYYCAKHYYYGGSYAMDYWGQGTSVTVSSGGGGSEIVMTQSPATLSLSPGERATLSCRASQIISSSYLSWYQQKPGQAPRLLIYGASTRATGIPARFSGSGSGTDFTLTISSLQPEDFAVYYCQQDYDFPFTFGPGTKVDIKRGGGGSGGGGSGGGGSQVQLQESGPGLVKPSETLSLTCTVSGGSISSYYWSWIRQPPGKGLEWIGYINNSGSTNYNPSLKSRVTISVDTSKNQFSLKLSSVTAADTAVYYCAREDDYWGQGTLVTVSSESKYGPPCPPCPMFWVLVVVGGVLACYSLLVTVAFIIFWVKRGRKKLLYIFKQPFMRPVQTTQEEDGCSCRFPEEEEGGCELRVKFSRSADAPAYQQGQNQLYNELNLGRREEYDVLDKRRGRDPEMGGKPRRKNPQEGLYNELQKDKMAEAYSEIGMKGERRRGKGHDGLYQGLSTATKDTYDALHMQALPPR
B3: JH2 CAR/LoD/b (other)
chain: QVQLQESGPGLVKPSETLSLTCTVSGGSISSYYWSWIRQPPGKGLEWIGYINNSGSTNYNPSLKSRVTISVDTSKNQFSLKLSSVTAADTAVYYCAREDDYWGQGTLVTVSSGGGGSDIQMTQTTSSLSASLGDRVTISCRASQDISKYLNWYQQKPDGTVKLLIYHTSRLHSGVPSRFSGSGSGTDYSLTISNLEQEDIATYFCQQGNTLPYTFGGGTKLEITGSTSGSGKPGSGEGSTKGEVKLQESGPGLVAPSQSLSVTCTVSGVSLPDYGVSWIRQPPRKGLEWLGVIWGSETTYYNSALKSRLTIIKDNSKSQVFLKMNSLQTDDTAIYYCAKHYYYGGSYAMDYWGQGTSVTVSSGGGGSEIVMTQSPATLSLSPGERATLSCRASQIISSSYLSWYQQKPGQAPRLLIYGASTRATGIPARFSGSGSGTDFTLTISSLQPEDFAVYYCQQDYDFPFTFGPGTKVDIKRESKYGPPCPPCPMFWVLVVVGGVLACYSLLVTVAFIIFWVKRGRKKLLYIFKQPFMRPVQTTQEEDGCSCRFPEEEEGGCELRVKFSRSADAPAYQQGQNQLYNELNLGRREEYDVLDKRRGRDPEMGGKPRRKNPQEGLYNELQKDKMAEAYSEIGMKGERRRGKGHDGLYQGLSTATKDTYDALHMQALPPR
B4: JH2 CAR/LiD/a (other)
chain: DIQMTQTTSSLSASLGDRVTISCRASQDISKYLNWYQQKPDGTVKLLIYHTSRLHSGVPSRFSGSGSGTDYSLTISNLEQEDIATYFCQQGNTLPYTFGGGTKLEITGSTSGSGKPGSGEGSTKGEVKLQESGPGLVAPSQSLSVTCTVSGVSLPDYGVSWIRQPPRKGLEWLGVIWGSETTYYNSALKSRLTIIKDNSKSQVFLKMNSLQTDDTAIYYCAKHYYYGGSYAMDYWGQGTSVTVSSGGGGSQVQLQESGPGLVKPSETLSLTCTVSGGSISSYYWSWIRQPPGKGLEWIGYINNSGSTNYNPSLKSRVTISVDTSKNQFSLKLSSVTAADTAVYYCAREDDYWGQGTLVTVSSGGGGSGGGGSGGGGSEIVMTQSPATLSLSPGERATLSCRASQIISSSYLSWYQQKPGQAPRLLIYGASTRATGIPARFSGSGSGTDFTLTISSLQPEDFAVYYCQQDYDFPFTFGPGTKVDIKRESKYGPPCPPCPMFWVLVVVGGVLACYSLLVTVAFIIFWVKRGRKKLLYIFKQPFMRPVQTTQEEDGCSCRFPEEEEGGCELRVKFSRSADAPAYQQGQNQLYNELNLGRREEYDVLDKRRGRDPEMGGKPRRKNPQEGLYNELQKDKMAEAYSEIGMKGERRRGKGHDGLYQGLSTATKDTYDALHMQALPPR
B5: JH4 CAR/LiD (other)
chain: B4 chain with P290S, N302H, N303Y, S306N, I405S, I406V, S409N, Y470F
B6: JH2 CAR/LoP (other)
chain: DIQMTQTTSSLSASLGDRVTISCRASQDISKYLNWYQQKPDGTVKLLIYHTSRLHSGVPSRFSGSGSGTDYSLTISNLEQEDIATYFCQQGNTLPYTFGGGTKLEITGGGGSQVQLQESGPGLVKPSETLSLTCTVSGGSISSYYWSWIRQPPGKGLEWIGYINNSGSTNYNPSLKSRVTISVDTSKNQFSLKLSSVTAADTAVYYCAREDDYWGQGTLVTVSSGGGGSGGGGSGGGGSEIVMTQSPATLSLSPGERATLSCRASQIISSSYLSWYQQKPGQAPRLLIYGASTRATGIPARFSGSGSGTDFTLTISSLQPEDFAVYYCQQDYDFPFTFGPGTKVDIKRGGGGSEVKLQESGPGLVAPSQSLSVTCTVSGVSLPDYGVSWIRQPPRKGLEWLGVIWGSETTYYNSALKSRLTIIKDNSKSQVFLKMNSLQTDDTAIYYCAKHYYYGGSYAMDYWGQGTSVTVSSESKYGPPCPPCPMFWVLVVVGGVLACYSLLVTVAFIIFWVKRGRKKLLYIFKQPFMRPVQTTQEEDGCSCRFPEEEEGGCELRVKFSRSADAPAYQQGQNQLYNELNLGRREEYDVLDKRRGRDPEMGGKPRRKNPQEGLYNELQKDKMAEAYSEIGMKGERRRGKGHDGLYQGLSTATKDTYDALHMQALPPR
B7: JH1 CAR/LoP (other)
chain: DIQMTQTTSSLSASLGDRVTISCRASQDISKYLNWYQQKPDGTVKLLIYHTSRLHSGVPSRFSGSGSGTDYSLTISNLEQEDIATYFCQQGNTLPYTFGGGTKLEITGGGGSQVQLVQSGAEVKKPGASVKVSCKASGYTFTSYAMHWVRQAPGQRLEWMGWINAGNGNTKYSQKFQGRVTITRDTSASTAYMELRSLRSDDTAVYYCASGPGRLPVVWGQGTLVTVSSGGGGSGGGGSGGGGSSYVLTQPPSVSVAPGKTARITCGGNNIGSKSVHWYQQKPGQAPVLVVYDDSDRPSGIPERFSGSNSGNTATLTISRVEAGDEADYYCQVWDSSSDHVVFGGGTKLTVLGGGGSEVKLQESGPGLVAPSQSLSVTCTVSGVSLPDYGVSWIRQPPRKGLEWLGVIWGSETTYYNSALKSRLTIIKDNSKSQVFLKMNSLQTDDTAIYYCAKHYYYGGSYAMDYWGQGTSVTVSSESKYGPPCPPCPMFWVLVVVGGVLACYSLLVTVAFIIFWVKRGRKKLLYIFKQPFMRPVQTTQEEDGCSCRFPEEEEGGCELRVKFSRSADAPAYQQGQNQLYNELNLGRREEYDVLDKRRGRDPEMGGKPRRKNPQEGLYNELQKDKMAEAYSEIGMKGERRRGKGHDGLYQGLSTATKDTYDALHMQALPPR

molecular target: T2, B-cell activating factor receptor (BAFF-R) (human, UniProt Q96RJ3 1-184); assay: cell-based or functional assay

Decrease in IFN-γ production with sBAFF, alone or relative to FMC63 scFv alone (JeKo-1 co-culture), ≤ 20%:
B1, B2, B3, B4, B5

Decrease of IFN-γ with FMC63 scFv + sBAFF compared to the inhibition from FMC63 scFv alone (JeKo-1 co-culture), ≤ 10%:
B1, B2, B3, B4, B5, B6

Decrease in IFN-γ production with FMC63 scFv + sBAFF relative to FMC63 scFv alone (JeKo-1 co-culture), > 50%:
B6, B7

molecular target: T2, B-cell activating factor receptor …; assay: cell-based or functional assay; remark: another data set of the same source

Inhibition of IFN-γ production by CAR T cells when JeKo-1 target cells were preincubated with both FMC63 scFv and sBAFF (20 µg/mL each), relative to target-only co-culture; legend: ++ = High, >80%, > 80%:
B6, B7

molecular target: T1, B-lymphocyte antigen CD19 (CD19); assay: cell-based or functional assay

Inhibition of IFN-γ production by CAR T cells when JeKo-1 target cells were preincubated with both FMC63 scFv and sBAFF (20 µg/mL each), relative to target-only co-culture; legend: ++ = High, >80%, > 80%:
B6, B7
